# Results from IntAct's records for PubMed 35512704.
# B1: Speckle-type POZ protein (Homo sapiens), O43791 (parent)
# chain: MSRVPSPPPPAEMSSGPVAESWCYTQIKVVKFSYMWTINNFSFCREEMGEVIKSSTFSSGANDKLKWCLRVNPKGLDEESKDYLSLYLLLVSCPKSEVRAKFKFSILNAKGEETKAMESQRAYRFVQGKDWGFKKFIRRDFLLDEANGLLPDDKLTLFCEVSVVQDSVNISGQNTMNMVKVPECRLADELGGLWENSRFTDCCLCVAGQEFQAHKAILAARSPVFSAMFEHEMEESKKNRVEINDVEPEVFKEMMCFIYTGKAPNLDKMADDLLAAADKYALERLKVMCEDALCSNLSVENAAEILILADLHSADQLKTQAVDFINYHASDVLETSGWKSMVVSHPHLVAEAYRSLASAQCPFLGPPRKRLKQS
# partner: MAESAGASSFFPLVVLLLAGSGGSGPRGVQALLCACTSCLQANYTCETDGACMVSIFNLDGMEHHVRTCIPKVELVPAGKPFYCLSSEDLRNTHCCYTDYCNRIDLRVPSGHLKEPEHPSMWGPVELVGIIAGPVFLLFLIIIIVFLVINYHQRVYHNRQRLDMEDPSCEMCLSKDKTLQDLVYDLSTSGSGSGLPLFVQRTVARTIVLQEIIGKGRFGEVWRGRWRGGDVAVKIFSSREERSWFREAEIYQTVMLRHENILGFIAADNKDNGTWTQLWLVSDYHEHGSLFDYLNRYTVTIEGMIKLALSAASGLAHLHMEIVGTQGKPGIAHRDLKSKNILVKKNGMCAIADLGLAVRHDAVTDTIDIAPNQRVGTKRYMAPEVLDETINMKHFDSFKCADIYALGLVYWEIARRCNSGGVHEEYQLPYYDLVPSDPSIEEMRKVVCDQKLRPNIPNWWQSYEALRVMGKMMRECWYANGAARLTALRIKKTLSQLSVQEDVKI
# B2: Mothers against decapentaplegic homolog 4 (Homo sapiens), Q13485 (parent)
# chain: MDNMSITNTPTSNDACLSIVHSLMCHRQGGESETFAKRAIESLVKKLKEKKDELDSLITAITTNGAHPSKCVTIQRTLDGRLQVAGRKGFPHVIYARLWRWPDLHKNELKHVKYCQYAFDLKCDSVCVNPYHYERVVSPGIDLSGLTLQSNAPSSMMVKDEYVHDFEGQPSLSTEGHSIQTIQHPPSNRASTETYSTPALLAPSESNATSTANFPNIPVASTSQPASILGGSHSEGLLQIASGPQPGQQQNGFTGQPATYHHNSTTTWTGSRTAPYTPNLPHHQNGHLQHHPPMPPHPGHYWPVHNELAFQPPISNHPAPEYWCSIAYFEMDVQVGETFKVPSSCPIVTVDGYVDPSGGDRFCLGQLSNVHRTEAIERARLHIGKGVQLECKGEGDVWVRCLSDHAVFVQSYYLDREAGRAPGDAVHKIYPSAYIKVFDLRQCHRQMQQQAATAQAAAAAQAAAVAGNIPGPGSVGGIAPAISLSAAAGIGVDDLRRLCILRMSFVKGWGPDYPRQSIKETPCWIEIHLHRALQLLDEVLHTMPIADPQPLD
# partner: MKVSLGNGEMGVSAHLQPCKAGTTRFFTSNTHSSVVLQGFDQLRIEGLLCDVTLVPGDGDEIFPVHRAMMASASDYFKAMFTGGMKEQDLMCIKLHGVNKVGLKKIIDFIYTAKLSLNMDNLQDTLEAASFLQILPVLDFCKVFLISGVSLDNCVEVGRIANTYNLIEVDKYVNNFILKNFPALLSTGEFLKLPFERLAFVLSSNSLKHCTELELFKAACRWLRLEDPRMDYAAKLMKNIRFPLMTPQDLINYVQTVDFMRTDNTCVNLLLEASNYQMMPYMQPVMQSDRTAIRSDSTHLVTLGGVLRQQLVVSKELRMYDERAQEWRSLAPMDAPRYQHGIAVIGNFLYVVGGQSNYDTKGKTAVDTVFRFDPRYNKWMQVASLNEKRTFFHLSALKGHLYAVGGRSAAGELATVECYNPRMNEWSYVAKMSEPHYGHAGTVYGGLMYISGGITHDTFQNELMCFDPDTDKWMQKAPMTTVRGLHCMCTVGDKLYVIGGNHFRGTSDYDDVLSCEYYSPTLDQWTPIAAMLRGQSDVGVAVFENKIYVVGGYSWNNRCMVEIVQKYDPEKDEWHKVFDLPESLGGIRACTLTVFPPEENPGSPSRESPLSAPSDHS
# B3: Mothers against decapentaplegic homolog 4 (Homo sapiens), Q13485 (parent)
# chain: B2 chain
# partner: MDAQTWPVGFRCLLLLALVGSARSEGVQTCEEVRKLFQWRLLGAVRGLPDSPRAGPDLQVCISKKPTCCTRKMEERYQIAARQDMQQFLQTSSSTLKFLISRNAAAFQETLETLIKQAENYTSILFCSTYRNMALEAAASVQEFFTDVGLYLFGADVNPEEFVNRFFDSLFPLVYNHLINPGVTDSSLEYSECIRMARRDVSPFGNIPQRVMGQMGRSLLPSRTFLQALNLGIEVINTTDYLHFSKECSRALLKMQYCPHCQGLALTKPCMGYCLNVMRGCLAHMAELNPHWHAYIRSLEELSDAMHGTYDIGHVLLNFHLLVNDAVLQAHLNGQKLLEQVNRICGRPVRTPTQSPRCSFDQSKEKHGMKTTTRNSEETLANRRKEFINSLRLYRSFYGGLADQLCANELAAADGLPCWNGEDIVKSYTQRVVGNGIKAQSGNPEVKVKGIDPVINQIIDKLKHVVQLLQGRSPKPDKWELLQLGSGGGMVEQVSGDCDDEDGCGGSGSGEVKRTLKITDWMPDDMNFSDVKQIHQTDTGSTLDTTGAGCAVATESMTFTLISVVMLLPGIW
# B4: Mothers against decapentaplegic homolog 4 (Homo sapiens), Q13485 (parent)
# chain: B2 chain
# partner: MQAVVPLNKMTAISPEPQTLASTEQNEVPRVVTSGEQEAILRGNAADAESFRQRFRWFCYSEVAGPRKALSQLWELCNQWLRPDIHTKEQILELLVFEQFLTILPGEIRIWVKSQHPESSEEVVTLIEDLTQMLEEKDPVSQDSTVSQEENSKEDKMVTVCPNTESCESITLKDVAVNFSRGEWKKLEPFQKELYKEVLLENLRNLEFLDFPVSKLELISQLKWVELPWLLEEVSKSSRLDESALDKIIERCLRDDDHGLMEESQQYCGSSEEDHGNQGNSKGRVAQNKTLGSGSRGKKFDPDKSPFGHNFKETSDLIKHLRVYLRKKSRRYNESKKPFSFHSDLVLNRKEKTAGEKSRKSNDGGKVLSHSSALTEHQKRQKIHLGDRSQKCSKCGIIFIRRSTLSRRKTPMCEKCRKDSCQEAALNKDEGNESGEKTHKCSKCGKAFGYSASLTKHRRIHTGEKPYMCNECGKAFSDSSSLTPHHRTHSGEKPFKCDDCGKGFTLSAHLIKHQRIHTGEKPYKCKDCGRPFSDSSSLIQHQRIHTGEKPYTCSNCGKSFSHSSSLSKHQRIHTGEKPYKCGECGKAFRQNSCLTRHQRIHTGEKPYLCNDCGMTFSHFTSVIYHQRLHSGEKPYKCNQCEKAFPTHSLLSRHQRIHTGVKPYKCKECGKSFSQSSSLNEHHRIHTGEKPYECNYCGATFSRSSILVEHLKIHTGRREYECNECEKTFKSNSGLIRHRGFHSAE
# B5: Speckle-type POZ protein (Homo sapiens), O43791 (parent)
# chain: B1 chain
# partner: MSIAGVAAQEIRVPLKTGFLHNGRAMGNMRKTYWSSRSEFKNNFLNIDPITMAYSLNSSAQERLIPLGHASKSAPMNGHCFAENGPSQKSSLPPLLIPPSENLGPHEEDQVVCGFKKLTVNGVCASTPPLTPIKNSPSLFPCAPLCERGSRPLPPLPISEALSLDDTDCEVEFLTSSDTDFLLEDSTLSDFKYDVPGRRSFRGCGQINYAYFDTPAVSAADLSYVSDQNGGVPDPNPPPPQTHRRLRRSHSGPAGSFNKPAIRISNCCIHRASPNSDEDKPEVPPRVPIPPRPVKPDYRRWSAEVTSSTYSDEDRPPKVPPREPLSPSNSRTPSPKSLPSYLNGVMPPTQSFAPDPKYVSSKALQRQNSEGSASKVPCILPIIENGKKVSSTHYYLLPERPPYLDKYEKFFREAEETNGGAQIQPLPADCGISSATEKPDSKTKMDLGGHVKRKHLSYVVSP
# B6: Mothers against decapentaplegic homolog 4 (Homo sapiens), Q13485 (parent)
# chain: B2 chain
# partner: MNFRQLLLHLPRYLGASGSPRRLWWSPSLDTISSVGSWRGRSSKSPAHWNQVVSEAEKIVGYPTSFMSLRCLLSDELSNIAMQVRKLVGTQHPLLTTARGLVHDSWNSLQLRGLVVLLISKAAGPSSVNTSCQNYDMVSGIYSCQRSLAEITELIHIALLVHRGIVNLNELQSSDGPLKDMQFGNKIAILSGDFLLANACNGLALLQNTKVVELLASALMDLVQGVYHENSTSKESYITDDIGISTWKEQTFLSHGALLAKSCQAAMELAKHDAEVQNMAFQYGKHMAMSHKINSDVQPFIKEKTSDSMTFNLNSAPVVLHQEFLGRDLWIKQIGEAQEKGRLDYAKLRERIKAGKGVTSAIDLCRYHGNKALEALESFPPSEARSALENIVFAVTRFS
# B7: Mothers against decapentaplegic homolog 4 (Homo sapiens), Q13485 (parent)
# chain: B2 chain
# partner: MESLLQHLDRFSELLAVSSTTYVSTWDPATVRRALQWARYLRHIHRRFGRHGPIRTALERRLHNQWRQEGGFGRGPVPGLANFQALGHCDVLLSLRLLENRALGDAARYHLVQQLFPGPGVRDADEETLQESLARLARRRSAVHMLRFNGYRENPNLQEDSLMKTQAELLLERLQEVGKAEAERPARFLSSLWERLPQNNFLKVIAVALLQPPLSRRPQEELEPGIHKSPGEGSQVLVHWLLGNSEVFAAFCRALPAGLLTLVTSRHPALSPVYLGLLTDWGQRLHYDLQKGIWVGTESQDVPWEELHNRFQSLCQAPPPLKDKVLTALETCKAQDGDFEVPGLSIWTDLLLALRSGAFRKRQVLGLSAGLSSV
# B8: Mothers against decapentaplegic homolog 4 (Homo sapiens), Q13485 (parent)
# chain: B2 chain
# partner: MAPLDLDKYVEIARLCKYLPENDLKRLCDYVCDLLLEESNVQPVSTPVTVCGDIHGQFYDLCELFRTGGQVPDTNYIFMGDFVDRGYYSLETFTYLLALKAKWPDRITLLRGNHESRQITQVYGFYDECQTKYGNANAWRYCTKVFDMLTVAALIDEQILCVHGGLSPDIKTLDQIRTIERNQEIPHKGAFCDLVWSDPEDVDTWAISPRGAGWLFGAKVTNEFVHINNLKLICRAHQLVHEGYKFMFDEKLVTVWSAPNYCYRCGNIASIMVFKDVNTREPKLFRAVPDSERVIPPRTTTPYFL
# B9: Mothers against decapentaplegic homolog 4 (Homo sapiens), Q13485 (parent)
# chain: B2 chain
# partner: B1 partner
# Variants of: B1
# Settings: with acv1b_human ACVR1B
row,effect of a mutation on the interaction,Variant
1,with no effect,F102C

# Variants of: B1
# Settings: with acv1b_human ACVR1B
# Remark: another data set of the same source
row,effect of a mutation on the interaction,Variant
1,with no effect,Y87C

# Variants of: B2
# Settings: with klhl9_human KLHL9, Q9P2J3
row,effect of a mutation on the interaction,Variant
1,with no effect,G386D

# Variants of: B2
# Settings: with klhl9_human KLHL9, Q9P2J3
# Remark: another data set of the same source
row,effect of a mutation on the interaction,Variant
1,increasing interaction strength,G386D

# Variants of: B3
# Settings: with gpc5_human GPC5, P78333
row,effect of a mutation on the interaction,Variant
1,with no effect,R361H

# Variants of: B3
# Settings: with gpc5_human GPC5, P78333
# Remark: another data set of the same source
row,effect of a mutation on the interaction,Variant
1,with no effect,R361C

# Variants of: B3
# Settings: with gpc5_human GPC5, P78333
# Remark: another data set of the same source
row,effect of a mutation on the interaction,Variant
1,with no effect,G386D

# Variants of: B3
# Settings: with gpc5_human GPC5, P78333
# Remark: another data set of the same source
row,effect of a mutation on the interaction,Variant
1,increasing interaction strength,G386D

# Variants of: B4
# Settings: with zn483_human ZNF483, Q8TF39
row,effect of a mutation on the interaction,Variant
1,with no effect,R361C

# Variants of: B4
# Settings: with zn483_human ZNF483, Q8TF39
# Remark: another data set of the same source
row,effect of a mutation on the interaction,Variant
1,with no effect,R361H

# Variants of: B5
# Settings: with errfi_human ERRFI1, Q9UJM3
row,effect of a mutation on the interaction,Variant
1,with no effect,F133L

# Variants of: B5
# Settings: with errfi_human ERRFI1, Q9UJM3
# Remark: another data set of the same source
row,effect of a mutation on the interaction,Variant
1,with no effect,F133V

# Variants of: B5
# Settings: with errfi_human ERRFI1, Q9UJM3
# Remark: another data set of the same source
row,effect of a mutation on the interaction,Variant
1,with no effect,F102C

# Variants of: B5
# Settings: with errfi_human ERRFI1, Q9UJM3
# Remark: another data set of the same source
row,effect of a mutation on the interaction,Variant
1,with no effect,Y87C

# Variants of: B6
# Settings: with dlp1_human PDSS2, Q86YH6
row,effect of a mutation on the interaction,Variant
1,with no effect,G386D

# Variants of: B6
# Settings: with dlp1_human PDSS2, Q86YH6
# Remark: another data set of the same source
row,effect of a mutation on the interaction,Variant
1,with no effect,R361H

# Variants of: B7
# Settings: with fancf_human FANCF
row,effect of a mutation on the interaction,Variant
1,with no effect,G386D

# Variants of: B8
# Settings: with ppp6_human PPP6C
row,effect of a mutation on the interaction,Variant
1,with no effect,G386D

# Variants of: B8
# Settings: with ppp6_human PPP6C
# Remark: another data set of the same source
row,effect of a mutation on the interaction,Variant
1,increasing interaction strength,G386D

# Variants of: B8
# Settings: with ppp6_human PPP6C
# Remark: another data set of the same source
row,effect of a mutation on the interaction,Variant
1,with no effect,R361C

# Variants of: B9
# Settings: with acv1b_human ACVR1B
row,effect of a mutation on the interaction,Variant
1,with no effect,R361H

# Variants of: B9
# Settings: with acv1b_human ACVR1B
# Remark: another data set of the same source
row,effect of a mutation on the interaction,Variant
1,with no effect,R361C

# Variants of: B9
# Settings: with acv1b_human ACVR1B
# Remark: another data set of the same source
row,effect of a mutation on the interaction,Variant
1,with no effect,G386D

# Variants of: B9
# Settings: with acv1b_human ACVR1B
# Remark: another data set of the same source
row,effect of a mutation on the interaction,Variant
1,increasing interaction strength,G386D
